Test results reported in US20210301005A1 (Genentech, published 2021).

Assays:
[1] = molecular target: T1, human TGFβ2, mature receptor-binding domain (human, UniProt P09858 303-414 (pig entry), The mature TGFβ2 is a disulfide-linked homodimer of this 112-residue chain. The 4A11 epitope spans both monomers (p-1207).); assay: BIAcore T200
T1 construct: Peprotech; also called TGFb2
T1 sequence: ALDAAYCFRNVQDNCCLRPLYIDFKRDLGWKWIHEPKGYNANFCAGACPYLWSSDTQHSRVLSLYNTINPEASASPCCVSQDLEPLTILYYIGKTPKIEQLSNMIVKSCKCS
Procedure: (§1) For binding affinity determinations of all humanized 2A10 antibodies, Surface Plasmon Resonance (SPR) measurement with a BIAcore™-T200 instrument was used. Briefly, series S CM5 biosensor chip with protein A was first applied to capture each humanized 2A10 variant to achieve approximately 100 response units (RU) on each flow cell, following by injection of 3-fold serial dilutions of human TGFβ1, TGFβ2 or TGFβ3 (0.02 nM to 5 nM) in HBS-EP buffer (0.01M HEPES pH 7.4, 0.15M NaCl, 3 mM EDTA and 0.05% v/v surfactant P20) at 25° C. with a flow rate of 50 μl/min for kinetics measurement. Association rates (ko.) and dissociation rates (koff) were calculated using a simple one-to-one Langmuir binding model (BIAcore T200 evaluation software version 2.0) to determine the equilibrium dissociation constant (KD), which was calculated as the ratio koff/kₒₙ.
(§2) Binding affinity determinations of all humanized 4A11 antibodies were performed using SPR measurement with a BIAcore™-T200 instrument, as described above in Example 6 ([…]).

[2] = molecular target: T2, human TGFβ3, mature dimeric form (human, UniProt P10600 301-412); assay: BIAcore T200
T2 construct: Peprotech, expressed in E. coli; also called TGFb3
T2 sequence: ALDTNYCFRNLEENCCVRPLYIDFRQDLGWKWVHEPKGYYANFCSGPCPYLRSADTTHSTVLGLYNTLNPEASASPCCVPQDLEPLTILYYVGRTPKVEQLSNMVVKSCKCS
Procedure: as §1, §2

[3] = molecular target: human TGFβ1, mature receptor-binding domain (human, UniProt P01137 279-390); assay: cell-based or functional assay
[4] = molecular target: T1, human TGFβ2, mature receptor-binding …; assay: cell-based or functional assay
[5] = molecular target: T2, human TGFβ3, mature dimeric form; assay: cell-based or functional assay
[6] = molecular target: T1, human TGFβ2, mature receptor-binding …; assay: cell-based or functional assay; remark: listed apart in the source

Chain of human TGFβ1, mature receptor-binding domain (P01137 279-390 limits assumed): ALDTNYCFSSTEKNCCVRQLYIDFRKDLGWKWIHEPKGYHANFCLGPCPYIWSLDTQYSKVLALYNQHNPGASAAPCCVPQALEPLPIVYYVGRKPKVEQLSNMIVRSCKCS

Row | Binder | Kd [1] | Kd [2] | HEKBlue TGFβ blocking IC50 [3] | HEKBlue TGFβ blocking IC50 [4] | HEKBlue TGFβ blocking IC50 [5] | fold loss of blocking against h4A11.v7 [6]
1 | h4A11.v7.4 (antibody, V domains shown) VH: EQQLQESGPGLVKPSETLSLTCTVTGFSLSSYTVNWVRQPAGKGLEWIGYISYGGSAYYASWANGRFTISKDSSKNQVSLKLSSVTAADTAVYFCARHMQVGGAPTGSMAAFDPWGPGTLVTVSS VL: EIVLTQSPGTLSLSPGERATLSCQSSQSVYNNNYLSWFQQKPGQPPRLLIYGASTLTSGVPDRFSGSGSGTDFTLTISRLEPEDFAVYYCAGGYSGSSDKYAFGGGTKVEIK | 0.0064 nM | 0.0043 nM | > 200 nM | 0.01 nM | 0.05 nM | 
2 | h4A11.v7.6 (antibody, V domains shown) VH: EQQLQESGPGLVKPSETLSLTCTVTGFSLSSYTVNWVRQPAGKGLEWIGYISYGGSAYYASWANGRFTISKDSSKNQVSLKLSSVTAADTAVYFCARHMQVGGAPTGSMAAFDPWGPGTLVTVSS VL: EAVLTQSPGTLSLSPGERATLSCQSSQSVYNNNYLSWFQQKPGQAPRLLIYGASTLTSGVPDRFSGSGSGTDFTLTISRLEPEDFAVYYCAGGYSGSSDKYAFGGGTKVEIK | 0.0058 nM | 0.0065 nM | > 200 nM | 0.01 nM | 0.01 nM | 
3 | h4A11.v7.7 (antibody, V domains shown) VH: EQQLQESGPGLVKPSETLSLTCTVTGFSLSSYTVNWVRQPAGKGLEWIGYISYGGSAYYASWANGRFTISKDSSKNQVSLKLSSVTAADTAVYFCARHMQVGGAPTGSMAAFDPWGPGTLVTVSS VL: EAVLTQSPGTLSLSPGERATLSCQSSQSVYNNNYLSWFQQKPGQPPRLLIYGASTLTSGIPDRFSGSGSGTDFTLTISRLEPEDFAVYYCAGGYSGSSDKYAFGGGTKVEIK | 0.0063 nM | 0.0061 nM | > 200 nM | 0.04 nM | 0.04 nM | 
4 | h4A11.v7.8 (antibody, human IgG1, kappa, N297G) heavy: not shown light: EAVLTQSPGTLSLSPGERATLSCQSSQSVYNNNYLSWFQQKPGQPPRLLIYGASTLTSGVPDRFSGSGSGTDFTLTISRLEPEDFAVYYCAGGYSGSSDKYAFGGGTKVEIKRTVAAPSVFIFPPSDEQLKSGTASVVCLLNNFYPREAKVQWKVDNALQSGNSQESVTEQDSKDSTYSLSSTLTLSKADYEKHKVYACEVTHQGLSSPVTKSFNRGEC | 0.0045 nM | 0.0053 nM | > 200 nM | 0.06 nM | 0.03 nM | 
5 | h4A11.v7.1 (antibody, human IgG1, kappa, N297G) heavy: not shown light: EAVLTQSPGTLSLSPGERATLSCQSSQSVYNNNYLSWFQQKPGQPPRLLIYGASTLTSGVPDRFSGSGSGTDFTLTISRLEPEDFAVYYCAGGYSGSSDKYAFGGGTKVEIKRTVAAPSVFIFPPSDEQLKSGTASVVCLLNNFYPREAKVQWKVDNALQSGNSQESVTEQDSKDSTYSLSSTLTLSKADYEKHKVYACEVTHQGLSSPVTKSFNRGEC |  |  | > 33 nM | 0.09 nM | 0.03 nM | 
6 | h4A11.v7.2 (antibody, human IgG1, kappa, N297G) heavy: not shown light: EAVLTQSPGTLSLSPGERATLSCQSSQSVYNNNYLSWFQQKPGQPPRLLIYGASTLTSGVPDRFSGSGSGTDFTLTISRLEPEDFAVYYCAGGYSGSSDKYAFGGGTKVEIKRTVAAPSVFIFPPSDEQLKSGTASVVCLLNNFYPREAKVQWKVDNALQSGNSQESVTEQDSKDSTYSLSSTLTLSKADYEKHKVYACEVTHQGLSSPVTKSFNRGEC |  |  | > 33 nM | 0.03 nM | 0.01 nM | 
7 | h4A11.v7.3 (antibody, human IgG1, kappa, N297G) heavy: not shown light: EAVLTQSPGTLSLSPGERATLSCQSSQSVYNNNYLSWFQQKPGQPPRLLIYGASTLTSGVPDRFSGSGSGTDFTLTISRLEPEDFAVYYCAGGYSGSSDKYAFGGGTKVEIKRTVAAPSVFIFPPSDEQLKSGTASVVCLLNNFYPREAKVQWKVDNALQSGNSQESVTEQDSKDSTYSLSSTLTLSKADYEKHKVYACEVTHQGLSSPVTKSFNRGEC |  |  | > 33 nM | 0.03 nM | 0.03 nM | 
8 | h4A11.v7.9 (antibody, human IgG1, kappa, N297G, V domains shown) VH: EQQLQESGPGLVKPSETLSLTCTVTGFSLSSYTVNWIRQPAGKGLEWIGYISYGGSAYYASWANGRFTISKDSSKNQVSLKLSSVTAADTAVYFCARHMQVGGAPTGSMAAFDPWGPGTLVTVSS VL: EAVLTQSPGTLSLSPGERATLSCQSSQSVYNNNYLSWFQQKPGQPPRLLIYGASTLTSGVPDRFSGSGSGTDFTLTISRLEPEDFAVYYCAGGYSGSSDKYAFGGGTKVEIKR | 0.0049 nM | 0.0057 nM | > 200 nM | 0.08 nM | 0.02 nM | 
9 | h4A11.v7.10 (antibody, human IgG1, kappa, N297G, V domains shown) VH: EQQLQESGPGLVKPSETLSLTCTVTGFSLSSYTVNWVRQPAGKGLEWIGYISYGGSAYYASWANGRVTISKDSSKNQVSLKLSSVTAADTAVYFCARHMQVGGAPTGSMAAFDPWGPGTLVTVSS VL: EAVLTQSPGTLSLSPGERATLSCQSSQSVYNNNYLSWFQQKPGQPPRLLIYGASTLTSGVPDRFSGSGSGTDFTLTISRLEPEDFAVYYCAGGYSGSSDKYAFGGGTKVEIKR | 0.0056 nM | 0.0068 nM | > 200 nM | 0.02 nM | 0.02 nM | 
10 | h4A11.v7.14 (antibody, human IgG1, kappa, N297G, V domains shown) VH: EQQLQESGPGLVKPSETLSLTCTVTGFSLSSYTVNWVRQPAGKGLEWIGYISYGGSAYYASWANGRFTISKDSSKNQVSLKLSSVTAADTAVYYCARHMQVGGAPTGSMAAFDPWGPGTLVTVSS VL: EAVLTQSPGTLSLSPGERATLSCQSSQSVYNNNYLSWFQQKPGQPPRLLIYGASTLTSGVPDRFSGSGSGTDFTLTISRLEPEDFAVYYCAGGYSGSSDKYAFGGGTKVEIKR | 0.0049 nM | 0.0055 nM | > 200 nM | 0.35 nM | 0.04 nM | 4 fold
11 | h4A11.v7.15 (antibody, human IgG1, kappa, N297G) heavy: not shown light: EAVLTQSPGTLSLSPGERATLSCQSSQSVYNNNYLSWFQQKPGQPPRLLIYGASTLTSGVPDRFSGSGSGTDFTLTISRLEPEDFAVYYCAGGYSGSSDKYAFGGGTKVEIKRTVAAPSVFIFPPSDEQLKSGTASVVCLLNNFYPREAKVQWKVDNALQSGNSQESVTEQDSKDSTYSLSSTLTLSKADYEKHKVYACEVTHQGLSSPVTKSFNRGEC | 0.0047 nM | 0.0048 nM | > 200 nM | 0.09 nM | 0.02 nM | 
12 | h4A11.v7.12 (antibody, human IgG1, kappa, N297G, V domains shown) VH: EQQLQESGPGLVKPSETLSLTCTVTGFSLSSYTVNWVRQPAGKGLEWIGYISYGGSAYYASWANGRFTISKDTSKNQVSLKLSSVTAADTAVYFCARHMQVGGAPTGSMAAFDPWGPGTLVTVSS VL: EAVLTQSPGTLSLSPGERATLSCQSSQSVYNNNYLSWFQQKPGQPPRLLIYGASTLTSGVPDRFSGSGSGTDFTLTISRLEPEDFAVYYCAGGYSGSSDKYAFGGGTKVEIKR | 0.006 nM | 0.0065 nM | > 200 nM | 0.01 nM | 0.03 nM | 
